Source: US8871909B2, “Antibodies inhibiting c-Met dimerization and uses thereof” (Pierre Fabre Medicament, priority 2007, dated 2014)
Blank lines part the entries; values can stand above or below the molecule they belong to.

Key:
NCI-H441 [1] = assay: In vivo combination of 224G11 and Navelbine on NCI-H441 xenograft model (Example 19); parameters: species or system Athymic nude mice; conditions: day 41 post first injection
Procedure: NCI-H441 cells from ATCC were routinely cultured in RPMI 1640 medium, 10% FCS, 1% L-Glutamine. Cells were split two days before engraftment being in exponential phase of growth. Ten million NCI-H441 cells were engrafted to Athymic nude mice. […] Mice were treated i.p. either with a loading dose of 2 mg of 224G11 Mab/mouse and then twice a week with 1 mg of antibody/mouse until Day 38 or with 3 injections of Navelbine® (D5, D12, D19) at 8 mg/kg. A third group administered with the combine treatment was also included. Navelbine® was given by i.p. injections. Tumor volume was measured twice a week and calculated by the formula: π/6×length×width×height and animal weights were monitored every day over the period of Navelbine® treatment. Statistical analysis was performed at each measured time using either a t-test or a Mann-Whitney test. […] Results are represented in FIG. 45.

c-Met = assay: BRET analysis of c-Met dimerization on c-Met transfected CHO cells; type: cell-based; conditions: CHO cells expressing C-Met-Rluc and C-Met-K1100A-YFP, supernatants
Excerpt: The technology BRET, used in the step iii) of the process, is well known by the person skill in the art and will be detailed in the following examples. More particularly, BRET (Bioluminescence Resonance Energy Transfer) is a non-radiative energy transfer occurring between a bioluminescent donor (Renilla Luciferase (Rluc)) and a fluorescent acceptor, a mutant of GFP (Green Fluorescent Protein) or YFP (Yellow fluorescent protein). In the present case EYFP (Enhanced Yellow Fluorescent Protein) was used. The efficacy of transfer depends on the orientation and the distance between the donor and the acceptor. Then, the energy transfer can occur only if the two molecules are in close proximity (1-10 nm). This property is used to generate protein-protein interaction assays. Indeed, in order to study the interaction between two partners, the first one is genetically fused to the Renilla Luciferase and the second one to the yellow mutant of the GFP. Fusion proteins are generally, but not obligatory, expressed in mammalian cells. In presence of its membrane permeable substrate (coelenterazine), Rluc emits blue light. If the GFP mutant is closer than 10 nm from the Rluc, an energy transfer can occur and an additional yellow signal can be detected. The BRET signal is measured as the ratio between the light emitted by the acceptor and the light emitted by the donor. So the BRET signal will increase as the two fusion proteins are brought into proximity or if a conformational change bring Rluc and GFP mutant closer.
Then antibodies inhibiting at least 50% cell proliferation were evaluated as supernatants by BRET analysis on c-Met transfected cells. For that purpose, CHO stable cell lines expressing C-Met-Rluc or C-Met-Rluc and C-Met-K1100A-YFP were generated. Cells were distributed in white 96 well microplates in DMEM-F12/FBS 5% culture medium one or two days before BRET experiments. Cells were first cultured at 37° C. with CO2 5% in order to allow cell attachment to the plate. Cells were then starved with 200 μl DMEM/well overnight. Immediately prior to the experiment, DMEM was removed and cells quickly washed with PBS. Cells were incubated in PBS in the presence or absence of antibodies to be tested or reference compounds, 10 min at 37° C. prior to the addition of coelenterazine with or without HGF in a final volume of 50 μl. […]
BRET ratio has been defined previously [Angers et al., Proc. Natl. Acad. Sci. USA, 2000, 97:3684-3689] as: [(emission at 530 nm)−(emission at 485 nm)×Cf]/(emission at 485 nm), where Cf corresponds to (emission at 530 nm)/(emission at 485 nm) for cells expressing Rluc fusion protein alone in the same experimental conditions. […] For the sake of readability, results are expressed in milliBRET units (mBU); mBU corresponds to the BRET ratio multiplied by 1000.

HGF-cMet = molecular target: T1, HGF-cMet (Homo sapiens, UniProt P08581); assay: HGF-cMet competition assay (ELISA); type: binding; conditions: at high antibody concentration, purified murine antibodies
T1 construct: recombinant c-Met-Extra-Cellular Domain (ECD) fused to an human IgG Fc domain
Excerpt: FIG. 54: HGF-cMet competition assay. In this ELISA-based assay, recombinant Fc-cMET residual binding to plastic coated HGF in the presence of purified murine monoclonal antibodies 11E1, 224G11 and 227H1 was detected with […] and measured at 450 nm;
FIG. 58: HGF-cMet competition assay of 227H1 murine and recombinant antibodies. In this ELISA-based assay, recombinant Fc-cMet residual binding to plastic coated HGF in the presence of the different forms of the 227H1 antibody was detected with a biotinylated unrelated anti-cMet antibody. Purified murine 227H1 monoclonal antibody, chimeric and HZ4VH-derived humanized 227H1-derived recombinant antibodies were tested and compared for their abilities to compete with HGF-cMet binding when measured at 450 nm;
Humanization of the anti-cMet antibodies were performed independently for each chain and sequentially, regarding to the analysed amino acids in each variable domain. The humanization process was evaluated in a first attempt in an ELISA-based binding assay to recombinant Fc-cMet; binding activities the humanized antibodies being compared to the recombinant chimeric antibody. In a second attempt, anti-cMet humanized antibodies were evaluated for their abilities to displace the Fc-cMet binding onto plastic-coated recombinant HGF; this competition assay allowing the direct comparison of murine, chimeric and humanized versions of the anti-cMet antibodies.
These two assays were used to characterize the recombinant chimeric and humanized versions of the murine anti-cMet antibodies. To this end, briefly, anti-cMet variable domains, either murine or humanized, were cloned into LONZA's pCONplus expression vectors series and recombinant IgG1/κ-derived antibodies were expressed in CHO cells. […] Both direct binding and HGF-competition assays were assessed to better characterize recombinant chimeric or humanized versions.

SEMA domain = molecular target: T2, SEMA domain (Homo sapiens, UniProt P08581); assay: ELISA recognition of recombinant SEMA domain; type: binding
T2 construct: the recombinant c-Met-Fc protein and the recombinant SEMA domain
Procedure: To characterize the pattern of recognition of the 3 selected antibodies, 3 ELISA have been set up with the recombinant c-Met protein, its monomeric fragment (obtained by cleavage of the recombinant c-Met-Fc protein and the recombinant SEMA domain.
To perform these ELISA the human dimeric c-Met protein (R&D sytems, cat#358MT) is coated at the concentration of 0.7 μg/ml in PBS overnight at 4° C. After saturation of the plates (Costar #3690) with a 0.5% gelatin solution 2 hours at 37° C., hybridoma supernatants are incubated 1 hour at 37° C. Once rinsed with PBS, the anti-mouse HRP-antibody (Jackson ImmunoResearch, catalog #115-035-164) is added to each well at a 1/5000 dilution in ELISA buffer (0.1% gelatin/0.05% Tween 20 in PBS) and the plates incubated for 1 hour at 37° C. […] The reaction is left to occur for 5 min at room temperature. The reaction is stopped by the addition of 50 μl/well of a 1 M H2SO4 solution and read on a plate reader at 450 nm. The same kind of protocol was performed on monomeric c-Met and SEMA domain but in that cases proteins were coated at 5 and 3 μg/ml respectively.

NCI-H441 [2] = assay: NCI-H441 xenograft model (Example 11)
Excerpt: The evaluation of anti-c-met antibodies on the in vivo activity of this non autocrine cell line could give some insights about their potency to impact on c-met dimerization.

BxPC3 cells = assay: In vitro inhibition of BxPC3 proliferation ([3H]thymidine incorporation); type: cell-based; conditions: BxPC3, in absence of ligand, antibody alone
Procedure: For that purpose 50 000 BxPC3 cells were plated in 96 well plates in RPMI medium, 2 mM L. Glutamine, without SVF. […] After 3 days, cells were pulsed with 0.5 μCi of [^3H]thymidine for 16 hours. The magnitude of [^3H]thymidine incorporated into trichloroacetic acid-insoluble DNA was quantified by liquid scintillation counting. Results were expressed as raw data to really evaluate the intrinsic agonistic effect of each Mab (FIGS. 2A and 2B).

A549 cells = assay: Matrigel invasion assay with A549 cells; type: cell-based; conditions: A549, Mab 10 μg/ml, basal (no HGF)
Procedure: To evaluate the inhibiting effect of the anti-c-Met antibodies on the invasion process, A549 cells were plated in the upper chamber of BD BioCoat™ Matrigel™ invasion chambers (6.5 mm diameter wells with 8-μm pre size polycarbonate membranes). A459 cells were starved 24 hours before performing the invasion assay. Then 500 000 A549 cells were plated in chemotaxis buffer (DMEM medium, 0.1% BSA, 12 mM Hepes) in the upper well of each chamber, upon the Matrigel coating either with or without the antibody to be tested (final Mab concentration 10 μg/ml). After 1 hour incubation of the plates at 37° C. with 5% CO2, the lower chambers were filled with either growth medium containing 400 ng/ml of rhHGF or with growth medium alone. The chambers were incubated for 48 additional hours at 37° C. with 5% CO2. At the end of this incubation time, cells that remained on upper surface of the filter were gently removed with a cotton swab, cells that migrated to the lower surface of the filter were lysed, stained with CyQuant GR dye buffer (Invitrogen) and counted using a fluorescence reader Berthold Mithras LB940. All conditions were tested as triplicates.

[3] = molecular target: T3, recombinant c-Met-Extra-Cellular Domain (ECD) fused to an human IgG Fc domain (Homo sapiens, UniProt P08581); assay: Determination of affinity constants (KD) by Biacore analysis; type: binding; conditions: first column; Fab fragments, 25° C.
T3 construct: recombinant c-Met-Extra-Cellular Domain (ECD) fused to an human IgG Fc domain (R&D Systems) as antigen; purchased R&D Systems
Excerpt: The binding affinity of purified 11E1 and 224G11 antibodies was investigated by BIAcore X using recombinant c-Met-Extra-Cellular Domain (ECD) fused to an human IgG Fc domain (R&D Systems) as antigen (MW=129 kDa). As both c-Met-Fc fusion proteins and antibodies are bivalent compounds, Fab fragments of mAbs 11E1 and 224G11 (MW=50 kDa) were generated by papain cleavage, purified and used in this assay to avoid interference with avidity parameter. For the assay, an anti-Tag histidine capture antibody was coated on CM5 sensorchips. The running buffer was HBS-EP, the flow rate was 30 μl/min and the test was performed at 25° C. Soluble c-Met (ECD_M1)2-Fc-(HHHHHH)2 antigen was captured on the sensorchip (around 270 RU), and the antibodies to be tested were used in solution as analytes. The sensorship was regenerated using Glycine, HCl pH 1.5 buffer on both flowcells for half a minute.

T3 sequence (P08581 25-932 limits assumed): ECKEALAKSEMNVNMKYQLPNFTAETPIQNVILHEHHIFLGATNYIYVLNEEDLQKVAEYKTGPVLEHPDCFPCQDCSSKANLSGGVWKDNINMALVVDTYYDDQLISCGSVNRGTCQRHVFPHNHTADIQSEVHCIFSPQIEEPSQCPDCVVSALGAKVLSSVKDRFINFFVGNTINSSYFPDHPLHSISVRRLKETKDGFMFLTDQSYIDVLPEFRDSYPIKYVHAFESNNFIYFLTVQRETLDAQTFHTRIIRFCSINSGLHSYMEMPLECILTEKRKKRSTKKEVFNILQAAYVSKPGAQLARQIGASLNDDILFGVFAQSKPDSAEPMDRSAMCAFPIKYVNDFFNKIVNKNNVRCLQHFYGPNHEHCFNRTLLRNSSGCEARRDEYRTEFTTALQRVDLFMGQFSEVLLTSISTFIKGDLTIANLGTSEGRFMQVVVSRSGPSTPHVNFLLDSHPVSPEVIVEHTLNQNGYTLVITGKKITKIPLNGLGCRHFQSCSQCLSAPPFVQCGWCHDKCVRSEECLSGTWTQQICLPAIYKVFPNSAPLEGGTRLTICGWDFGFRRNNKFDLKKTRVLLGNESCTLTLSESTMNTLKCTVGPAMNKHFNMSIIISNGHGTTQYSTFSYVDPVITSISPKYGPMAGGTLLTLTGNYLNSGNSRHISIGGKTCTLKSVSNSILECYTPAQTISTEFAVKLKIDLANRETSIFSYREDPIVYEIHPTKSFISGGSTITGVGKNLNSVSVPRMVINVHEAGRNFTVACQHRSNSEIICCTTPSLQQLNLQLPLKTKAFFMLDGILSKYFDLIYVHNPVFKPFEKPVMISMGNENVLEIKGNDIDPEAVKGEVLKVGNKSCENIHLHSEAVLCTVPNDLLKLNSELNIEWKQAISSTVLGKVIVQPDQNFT
Chain of c-Met (P08581 25-307 limits assumed): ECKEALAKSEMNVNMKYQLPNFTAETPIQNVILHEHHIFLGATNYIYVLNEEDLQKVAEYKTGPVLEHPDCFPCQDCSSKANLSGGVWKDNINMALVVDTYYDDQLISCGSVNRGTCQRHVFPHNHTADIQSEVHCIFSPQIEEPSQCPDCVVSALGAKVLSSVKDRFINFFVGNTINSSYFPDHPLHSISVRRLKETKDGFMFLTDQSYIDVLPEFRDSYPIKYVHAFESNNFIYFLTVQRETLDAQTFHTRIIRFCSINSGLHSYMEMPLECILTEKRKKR
Chain of c-Met (P08581 308-932 limits assumed): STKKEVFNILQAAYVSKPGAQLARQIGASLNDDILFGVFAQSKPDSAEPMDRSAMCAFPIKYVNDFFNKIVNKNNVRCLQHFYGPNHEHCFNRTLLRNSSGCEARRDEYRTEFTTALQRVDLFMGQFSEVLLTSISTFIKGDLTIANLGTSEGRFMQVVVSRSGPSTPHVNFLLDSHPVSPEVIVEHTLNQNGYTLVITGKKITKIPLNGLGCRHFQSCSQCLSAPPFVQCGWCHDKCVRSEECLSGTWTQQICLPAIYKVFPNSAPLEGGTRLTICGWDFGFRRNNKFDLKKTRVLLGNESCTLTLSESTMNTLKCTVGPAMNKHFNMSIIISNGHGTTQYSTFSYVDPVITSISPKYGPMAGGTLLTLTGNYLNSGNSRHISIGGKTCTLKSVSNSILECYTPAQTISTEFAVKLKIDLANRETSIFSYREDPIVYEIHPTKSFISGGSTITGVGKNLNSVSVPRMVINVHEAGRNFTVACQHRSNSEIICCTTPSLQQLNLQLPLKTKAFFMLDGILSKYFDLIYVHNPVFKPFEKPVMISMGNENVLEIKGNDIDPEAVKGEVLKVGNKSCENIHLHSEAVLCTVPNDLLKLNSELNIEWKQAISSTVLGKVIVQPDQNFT
T2 sequence (P08581 27-515 limits assumed): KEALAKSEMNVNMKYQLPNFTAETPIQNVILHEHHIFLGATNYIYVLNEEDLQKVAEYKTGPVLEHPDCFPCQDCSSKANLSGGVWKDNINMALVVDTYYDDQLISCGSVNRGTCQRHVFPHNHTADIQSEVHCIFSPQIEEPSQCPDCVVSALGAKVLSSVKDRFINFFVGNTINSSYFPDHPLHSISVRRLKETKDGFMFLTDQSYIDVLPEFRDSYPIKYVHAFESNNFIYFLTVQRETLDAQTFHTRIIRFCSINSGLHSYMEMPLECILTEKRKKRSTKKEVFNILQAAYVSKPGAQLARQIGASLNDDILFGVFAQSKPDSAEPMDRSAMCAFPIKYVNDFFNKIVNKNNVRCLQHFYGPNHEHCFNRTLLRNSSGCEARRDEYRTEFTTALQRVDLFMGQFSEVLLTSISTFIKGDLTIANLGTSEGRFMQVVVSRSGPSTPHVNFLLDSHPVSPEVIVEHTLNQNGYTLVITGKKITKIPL
T1 sequence (P08581 25-932 limits assumed): as the sequence (P08581 25-932 limits assumed) above

Molecule: CCC1=C[C@@H]2CN(C1)Cc1c([nH]c3ccccc13)[C@@](C(=O)OC)(c1cc3c(cc1OC)N(C)[C@H]1[C@@](O)(C(=O)OC)[C@H](OC(C)=O)[C@]4(CC)C=CCN5CC[C@]31[C@@H]54)C2 [Navelbine®, reference compound]
reduction of average tumor volume (NCI-H441 [1]): 76%

B1: 227H1: murine anti-c-Met monoclonal antibody, IgG1 kappa; heavy chain SEQ ID No. 19, light chain SEQ ID No. 22 (antibody, V domains shown)
VH: EVQLQQSGPELVKPGASMKISCKASGYSFTDYTLNWVKQSHGKTLEWIGLINPYNGGTTYNQKFKGKATLTVDKSSSTAYMELLSLTSEDSAVYYCAREEITKDFDFWGQGTTLTVSS
VL: GIVLTQSPASLAVSLGQRATISCRVSESIDTYGNSFIHWYQQKPGQPPKLLIYRASNLESGIPARFSGSGSRTDFTLTINPVEADDSATYYCQQSNEDPFTFGSGTKLEMK
modifications: mus musculus
inhibition of dimerization (c-Met): 52%
maximum of HGF binding displacement (HGF-cMet): 100%
binding to SEMA domain (SEMA domain): did not bind
inhibition of in vivo growth of NCI-H441 (NCI-H441 [2]): inhibited significantly
agonist activity on cell proliferation (BxPC3 cells): without any agonist activity
agonist effect on invasion, added alone (A549 cells): No agonist effect

Results, then the molecule that gave them:

Kon1 × 10^−6 [1/M · s] [3]: 2.04 ± 0.01 × 10^−6 [1/M · s]
B2: 224G11 Fab: Fab fragment of mAb 224G11 generated by papain cleavage (antibody, V domains shown)
VH: EVQLQQSGPELVKPGASVKISCKTSGYIFTAYTMHWVRQSLGESLDWIGGIKPNNGLANYNQKFKGKATLTVDKSSSTAYMDLRSLTSEDSAVYYCARSEITTEFDYWGQGTALTVSS
VL: DIVLTQSPASLAVSLGQRATISCRASESVDSYANSFMHWYQQKPGQPPKLLIYRASNLESGIPARFSGSGSRTDFTLTINPVEADDVATYYCQQSKEDPLTFGSGTKLEMK

Kon1 × 10^−6 [1/M · s] [3]: 1.13 ± 0.01 × 10^−6 [1/M · s]
B3: 11E1 Fab: Fab fragment of mAb 11E1 generated by papain cleavage (antibody, V domains shown)
VH: QVQLQQSGAELAKPGASVKMSCKASGYTFTSYWMNWVKQRPGQGLEWIGYINPTTGSTDYNQKLKDKATLTADKSSNTAYMQLSSLTSEDSAVYYCAIGGYGSWFAYWGQGTLVTVSA
VL: QIVLTQSPAIMSASPGEKVTLTCSASSSVSSTYLYWYQQKPGSSPKLWIYTTSILASGVPARFSGSGSGTSYSLTISSMETEDAASYFCHQWSSYPFTFGSGTKLDIK
